# From article PMC6283576, “Structural insight into substrate and product binding in an archaeal mevalonate kinase” (PLoS ONE, 2018)
# B1: mevalonate kinase from Methanosarcina mazei (enzyme)
# chain: MVSCSAPGKIYLFGEHAVVYGETAIACAVELRTRVRAELNDSITIQSQIGRTGLDFEKHPYVSAVIEKMRKSIPINGVFLTVDSDIPVGSGLGSSAAVTIASIGALNELFGFGLSLQEIAKLGHEIEIKVQGAASPTDTYVSTFGGVVTIPERRKLKTPDCGIVIGDTGVFSSTKELVANVRQLRESYPDLIEPLMTSIGKISRIGEQLVLSGDYASIGRLMNVNQGLLDALGVNILELSQLIYSARAAGAFGAKITGAGGGGCMVALTAPEKCNQVAEAVAGAGGKVTITKPTEQGLKVD
# notes: mevalonate kinase (MmMK), Methanosarcina mazei; codon-optimized gene cloned into pSKB3 (modified pET28b); also called MmMK; MK; source: E. coli BL21(DE3), purified (Ni-NTA)
# Molecular target: the molecule itself
# Test: crystal structure; MmMK with mevalonate (2.10 Å) or 5-phosphomevalonate (2.46 Å); space group P2(1)2(1)2(1), two molecules in the asymmetric unit; 100 mM Bis-Tris pH 5.5, sodium potassium tartrate, PEG 8,000 or 10,000
protein,measurement,value
B1,binding result,binds
